Measurements as given in US20200317744A1 (published 2020).
Where a chain is given by its changes, count along the chain named.

T1: IL-4 receptor αγc heterodimer (IL-4Rαγc) (human, UniProt P24394 26-232; P31785 23-254, limits assumed, biotinylated at the C-terminal biotin acceptor peptide (BirA))
T1 construct: also called γc when IL-4Rα is present in solution
T1 sequence 1: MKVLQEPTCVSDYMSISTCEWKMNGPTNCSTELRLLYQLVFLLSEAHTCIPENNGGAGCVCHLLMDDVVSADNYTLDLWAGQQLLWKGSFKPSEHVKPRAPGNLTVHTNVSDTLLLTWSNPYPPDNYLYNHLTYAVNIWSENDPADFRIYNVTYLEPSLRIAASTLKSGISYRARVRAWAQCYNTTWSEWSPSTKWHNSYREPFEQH
T1 sequence 2: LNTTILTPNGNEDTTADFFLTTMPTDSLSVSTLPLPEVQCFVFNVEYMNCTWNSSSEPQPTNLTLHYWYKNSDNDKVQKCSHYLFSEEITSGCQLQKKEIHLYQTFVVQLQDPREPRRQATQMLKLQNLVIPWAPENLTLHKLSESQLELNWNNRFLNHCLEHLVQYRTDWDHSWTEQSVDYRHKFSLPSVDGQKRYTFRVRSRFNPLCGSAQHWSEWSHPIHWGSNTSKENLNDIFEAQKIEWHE

T2: human IL-4Rα (human, UniProt P24394 26-232, limits assumed, biotinylated)
T2 construct: also called IL-4Rα receptor
T2 sequence (looked up): T1 sequence 1

B1: Neoleukin-2/15 internal disulfide-stapled variant (disulfide between residues 38 and 75) (designed binder)
chain: PKKKIQLHAEHALYDALMILNIVKTNSPPAEEKLEDYCFNFELILEEIARLFESGDQKDEAEKAKRMKEWMKRICTTASEDEQEEMANAIITILQSWIFS
modifications: disulfide bond between residues 38 and 75
B2: mouse IL-2 (mIL-2) (ligand, UniProt P04351 21-169, looked up)
chain: APTSSSTSSSTAEAQQQQQQQQQQQQHLEQLLMDLQELLSRMENYRNLKLPRMLTFKFYLPKQATELKDLQCLEDELGPLRHVLDLTQSKSFQLEDAENFISNIRVTVVKLKGSDNTFECQFDDESATVVDFLRRWIAFCQSIISTSPQ
B3: Mouse Serum Albumin (MSA) fusion to Neoleukin-2/15 (protein)
chain: GSDGGSHHHHHHGSGSENLYFQGSGEAHKSEIAHRYNDLGEQHFKGLVLIAFSQYLQKCSYDEHAKLVQEVTDFAKTCVADESAANCDKSLHTLFGDKLCAIPNLRENYGELADCCTKQEPERNECFLQHKDDNPSLPPFERPEAEAMCTSFKENPTTFMGHYLHEVARRHPYFYAPELLYYAEQYNEILTQCCAEADKESCLTPKLDGVKEKALVSSVRQRMKCSSMQKFGERAFKAWAVARLSQTFPNADFAEITKLATDLTKVNKECCHGDLLECADDRAELAKYMCENQATISSKLQTCCDKPLLKKAHCLSEVEHDTMPADLPAIAADFVEDQEVCKNYAEAKDVFLGTFLYEYSRRHPDYSVSLLLRLAKKYEATLEKCCAEANPPACYGTVLAEFQPLVEEPKNLVKTNCDLYEKLGEYGFQNAILVRYTQKAPQVSTPTLVEAARNLGRVGTKCCTLPEDQRLPCVEDYLSAILNRVCLLHEKTPVSEHVTKCCSGSLVERRPCFSALTVDETYVPKEFKAETFTFHSDICTLPEKEKQIKKQTALAELVKHKPKATAEQLKTVMDDFAQFLDTCCKAADKDTCFSTEGPNLVTRCKDALAGGGSGGSGGGSGGSGSGPKKKIQLHAEHALYDALMILNIVKTNSPPAEEKLEDYAFNFELILEEIARLFESGDQKDEAEKAKRMKEWMKRIKTTASEDEQEEMANAIITILQSWIFS
B4: G2_neo2_40_1F_seq29 (designed binder)
chain: EDYYSNLKVILEELAREMERNGLSDKAEEWRQWKKIVERIRQIRSNNSDLNEAKELLNRLITYIQSQIFEISERIRETDQEKKEESWKKWQLLLEHALLDVLMLLND
B5: G2_neo2_40_1F_seq04 (designed binder)
chain: TTKKIQLLVEHALLDALMILNLSSESNEKLNRIITTLQSWIFRGEIDPDRARELAKLLEEIREEMRKRGIDTEDYVSNMIVIIRELA
B6: G2_neo2_40_1F_seq27 (designed binder)
chain: TKKKAQLLAEHALLDALMLLNLSSESNERLNRIITWLQSIIFTGTYDPDMVKEAVKLADEIEDEMRKRGIDTEDYVSNLRVILQELA
B7: G2_neo2_40_1F_seq26 (designed binder)
chain: TKKKYQLLIEHALLDALMILNLWSESNEKLNRIITTMQSWIFTGTYDPDKAEELEKLAKEIEDEARERGIDTEDYMSNLRVILKELS
B8: Neoleukin-2/15 terminal disulfide-stapled variant (CNSN and NFQC added at the termini) (designed binder)
chain: CNSNKKKIQLHAEHALYDALMILNIVKTNSPPAEEKLEDYAFNFELILEEIARLFESGDQKDEAEKAKRMKEWMKRIKTTASEDEQEEMANAIITILQSWIFNFQC
modifications: disulfide bond between the added N-terminal and C-terminal cysteines
B9: G2_neo2_40_1F_seq12 (designed binder)
chain: TEKKLQLLVEHALLDALMILNLWSESNEKLNRIITTMQSWIFTGRIDPDKAEELAKLVEELREEARERGIDTEDYVSNLKVILKELS
B10: G2_neo2_40_1F_seq36 (designed binder)
chain: PKKKIQLLAEHALLDALMILNIVKTNSQNAEEKLEDYASNVEVILEEIARLMESGDQKDEAEKAKRMKEWMKRIKTTASEDEQEEMANRIITLLQSWIFS
B11: G2_neo2_40_1F_seq40 (designed binder)
chain: PEKKRQLLAEHALLDALMILNIIRTNSDNTESKLEDYISNLKVILEEIARLMESLGLSDEAEKAKEAMRLADKAGSTASEEEKKEAMNRVITWAQSWIFN
B12: G1_neo2_40_1F_M1 (designed binder)
chain: STEKTQLAAEHALRDALMLKHLLNEPNEKLARIITTMQSWQFTGKIDGDGAQELAKEVEELQQEHEVRGIDVEDYASNLKVILLHLA
B13: G1_neo2_40_1F_M2 (designed binder)
chain: B12 chain with E3K, K4N, H11D, R14L, K20R, H21N, G44E, V67E, H85Q
B14: G1_neo2_40_1F_M3 (designed binder)
chain: B12 chain with L7H, H11D, K20R, H21N, G44E, H85Q
B15: G2_neo2_40_1F_seq30 (designed binder)
chain: PEKKRQLLLEHILLDALMLLNLLETNPQNTESKFEDYISNAEVIAEELAKLMESLGLSDEAEKFKKIKQWLREVWRIWSSTNWSTLEDKARELLNRIITTIQSQIFY
B16: G2_neo2_40_1F_seq16 (designed binder)
chain: TKKKIQLLVEHALLDALMILNLSSKSNEKLNRIITTMQSWIFNGTIDPDRARELAKLVEEIRDEMEKNGIDTEDYVSNLKVILEELA
B17: Neoleukin-4 (i.e. IL4_G2_neo2_40_1F_seq36_S11_MIF) (designed binder)
chain: PKKKIQIMAEEALKDALSILNIVKTNSPPAEEQLERFAKRFERNLWGIARLFESGDQKDEAEKAKRMIEWMKRIKTTASEDEQEEMANAIITILQSWFFS
notes: also called Neo-4
B18: G1_neo2_40_1F (designed binder)
chain: STKKTQLLAEHALLDALMMLNLLPEPNEKLNRIITTMQSWIFTGKIDGDGAQELAKEVEELEQEHEKRGIDVEDYASNLKVILLELA
B19: G1_neo2_40_1F_H1 (designed binder)
chain: B18 chain with A9I, M18D, L20S, N21R, L22N, N31S, E53Q, I70E, Y75E
B20: G1_neo2_40_1F_H2 (designed binder)
chain: B18 chain with A9L, M18H, L20R, N21R, L22N, N31S, I70R, Y75D
B21: G1_neo2_40_1F_H3 (designed binder)
chain: B18 chain with A9I, M18N, L20R, N21K, L22K, N31S, T36D, E53Q, I70G
B22: G1_neo2_40_1F_H4 (designed binder)
chain: B18 chain with A9L, M18H, L20S, N21R, L22E, T36D, E53D, I70G
B23: G1_neo2_40_1F_H5 (designed binder)
chain: B18 chain with A9I, M18H, L20S, N21R, L22K, N31S, E53H, I70G, D71E, Y75E

What was measured:
[1] = target: murine IL-2 receptor βγc heterodimer (mIL-2Rβγc) (mouse) (UniProt P16297); assay: SPR; mIL-2Rγ immobilised, saturating mIL-2Rβ in solution
[2] = target: murine IL-2Rβ (mIL-2Rβ) (mouse) (UniProt P16297); assay: SPR; mIL-2Rβ immobilised
[3] = target: human IL-2Rβγc on YT-1 human natural killer cells (human) (UniProt P14784); assay: cell-based or functional assay
[4] = target: human IL-2Rβ (hIL-2Rβ) (human) (UniProt P14784); assay: SPR; hIL-2Rβ immobilised
[5] = target: human IL-2 receptor βγc heterodimer (hIL-2Rβγc) (human) (UniProt P14784); assay: SPR; hIL-2Rγ immobilised, saturating hIL-2Rβ in solution
[6] = target: IL-2Rβγc (species not stated); assay: biolayer interferometry
[7] = target: murine IL-2 receptor βγc heterodimer (mIL-2Rβγc) (mouse) (UniProt P16297); assay: biolayer interferometry; biotin-mIL2Gamma on streptavidin sensor, MSA-Neo2 titrated 729 to 1 nM with saturating mIL2Beta
[8] = target: T1, IL-4 receptor αγc heterodimer (IL-4Rαγc); assay: biolayer interferometry; γc on sensor, IL-4Rα in solution
Protocol: Less than 100 response units (RU) of each ligand was immobilized to minimize mass transfer effects. […] Surface regeneration for all interactions was conducted using 15 s exposure to 1 M MgCl2 in 10 mM sodium acetate pH 5.5. SPR experiments were carried out in HBS-P+ buffer (GE Healthcare) supplemented with 0.2% bovine serum albumin (BSA) at 25° C. and all binding studies were performed at a flow rate of […] to prevent analyte rebinding. Data was visualized and processed using the Biacore T100 evaluation software version 2.0 (GE Healthcare). Equilibrium titration curve fitting and equilibrium binding dissociation (KD) value determination was implemented using GraphPad Prism assuming all binding interactions to be first order. Biolayer interferometry: binding data were collected in a Octet RED96 (ForteBio, Menlo Park, Calif.) and processed using the instrument's integrated software using a 1:1 binding model. […] Analyte proteins were diluted from concentrated stocks into binding buffer.

[9] = target: T2, human IL-4Rα; assay: biolayer interferometry

Chain of IL-2Rβγc (species not stated) (P14784 whole entry, chain 1 of 2): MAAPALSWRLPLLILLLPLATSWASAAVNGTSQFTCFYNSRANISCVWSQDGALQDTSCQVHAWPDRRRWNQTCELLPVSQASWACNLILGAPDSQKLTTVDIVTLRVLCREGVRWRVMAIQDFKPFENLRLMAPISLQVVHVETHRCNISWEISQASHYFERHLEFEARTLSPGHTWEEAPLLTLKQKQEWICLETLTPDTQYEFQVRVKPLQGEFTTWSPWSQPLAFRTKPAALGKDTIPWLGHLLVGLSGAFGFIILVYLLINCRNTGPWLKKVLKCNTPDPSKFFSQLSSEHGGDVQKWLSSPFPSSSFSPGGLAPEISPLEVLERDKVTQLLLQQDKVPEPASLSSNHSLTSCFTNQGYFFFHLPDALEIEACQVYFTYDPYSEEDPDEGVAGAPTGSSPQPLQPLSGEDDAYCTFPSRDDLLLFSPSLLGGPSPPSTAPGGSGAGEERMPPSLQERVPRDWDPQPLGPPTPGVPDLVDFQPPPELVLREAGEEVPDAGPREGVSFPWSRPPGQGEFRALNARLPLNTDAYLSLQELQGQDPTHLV
Chain of IL-2Rβγc (species not stated) (P31785 whole entry, chain 2 of 2, further chain): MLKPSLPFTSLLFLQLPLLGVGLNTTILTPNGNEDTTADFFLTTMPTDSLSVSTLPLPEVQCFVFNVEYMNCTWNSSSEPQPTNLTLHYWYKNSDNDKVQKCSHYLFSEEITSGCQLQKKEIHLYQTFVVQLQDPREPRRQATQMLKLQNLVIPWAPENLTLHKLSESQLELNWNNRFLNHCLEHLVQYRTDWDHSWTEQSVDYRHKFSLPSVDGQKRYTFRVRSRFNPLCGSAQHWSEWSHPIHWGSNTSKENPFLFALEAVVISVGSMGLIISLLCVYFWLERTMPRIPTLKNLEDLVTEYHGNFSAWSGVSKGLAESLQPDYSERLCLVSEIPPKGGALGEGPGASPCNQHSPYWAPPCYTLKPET
Chain of human IL-2Rβ (hIL-2Rβ) (human) (P14784 other isoform, or with tags, fused parts or gaps): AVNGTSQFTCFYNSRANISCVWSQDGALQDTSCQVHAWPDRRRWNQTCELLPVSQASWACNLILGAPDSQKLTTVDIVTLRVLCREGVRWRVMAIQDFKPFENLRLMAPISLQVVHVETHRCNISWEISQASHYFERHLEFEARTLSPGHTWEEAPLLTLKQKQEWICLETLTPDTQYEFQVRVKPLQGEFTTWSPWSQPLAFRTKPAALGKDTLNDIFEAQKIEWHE
Chain of human IL-2 receptor βγc heterodimer (hIL-2Rβγc) (human) (P14784 27-240, one chain of several): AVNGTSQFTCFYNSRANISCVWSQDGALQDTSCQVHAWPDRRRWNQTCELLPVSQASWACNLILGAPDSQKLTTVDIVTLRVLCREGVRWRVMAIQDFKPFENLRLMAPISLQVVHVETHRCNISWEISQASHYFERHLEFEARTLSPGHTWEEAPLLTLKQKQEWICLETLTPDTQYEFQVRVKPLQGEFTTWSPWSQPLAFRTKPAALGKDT
Chain of human IL-2Rβγc on YT-1 human natural killer cells (human) (P14784 27-551): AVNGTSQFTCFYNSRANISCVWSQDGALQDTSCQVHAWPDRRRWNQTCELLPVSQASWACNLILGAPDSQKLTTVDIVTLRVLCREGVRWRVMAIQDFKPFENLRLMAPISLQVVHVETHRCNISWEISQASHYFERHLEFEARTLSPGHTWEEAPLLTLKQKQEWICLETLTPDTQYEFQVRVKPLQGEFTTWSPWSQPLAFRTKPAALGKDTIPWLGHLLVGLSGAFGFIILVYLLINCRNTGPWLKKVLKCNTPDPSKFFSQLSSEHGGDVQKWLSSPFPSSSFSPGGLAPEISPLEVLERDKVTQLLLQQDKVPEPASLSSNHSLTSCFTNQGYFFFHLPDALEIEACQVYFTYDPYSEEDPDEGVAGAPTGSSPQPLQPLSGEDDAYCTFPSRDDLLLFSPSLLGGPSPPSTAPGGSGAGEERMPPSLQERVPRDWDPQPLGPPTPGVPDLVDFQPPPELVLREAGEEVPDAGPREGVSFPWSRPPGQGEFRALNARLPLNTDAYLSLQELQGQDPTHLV

| Molecule | Kd [1] | Kd [2] | further results |
| --- | --- | --- | --- |
| Neoleukin-2/15 (i.e. G2_neo2_40_1F_seq36_S11) (designed binder) | 38.4 nM | 16.1 nM | – |
| human IL-2 (hIL-2) (from UniProt P60568 21-153) (ligand) | 492 nM | 8110 nM | – |
| Super-2/Superkine (PDB:3QAZ) (ligand) | 312 nM | 214 nM | EC50 (CD25-) pSTAT5, human NK (YT, CD25-) cells [3]: 70 pM; Kd [4]: 2 nM; Kd [5]: 301 nM |
| B1 | – | – | Kd [6]: 1.3 nM |
| B2 | 126 nM | 1500 nM | – |
| B3 | – | – | Kd [7]: 33.5 nM |
| B4 | 38.2 nM | – | – |
| B5 | 80 nM | – | – |
| B6 | 13.6 nM | – | – |
| B7 | 27.8 nM | – | – |
| B8 | – | – | Kd [6]: 1.8 nM |
| B9 | 39.1 nM | – | – |
| B10 | 568 nM | 2430 nM | – |
| B11 | 69.2 nM | – | – |
| B12 | 4.3 nM | 214 nM | – |
| B13 | 886 nM | 2600 nM | – |
| B14 | 64.8 nM | 402 nM | – |
| B15 | 925 nM | – | – |
| B16 | 71.5 nM | – | – |
| B17 | – | – | binding result [8]: binds; binding result [9]: binds |
| B18 | 7.9 nM | 486 nM | – |
| B19 | 2650 nM | 6800 nM | – |
| B20 | 964 nM | 68300 nM | – |
| B21 | 3830 nM | – | – |
| B22 | 392 nM | 10100 nM | – |
| B23 | 5120 nM | 45300 nM | – |
